{
  "source": "paper PMC10063446",
  "about": "(Nature Immunology, 2023)",
  "binders": {"B1": {"name": "P186-2C12 (antibody, V domains shown)", "VH": "EVQLVESGGGVVRPGGSLRLSCAASGFTFDDYGMSWVRQAPGKGLEWVSGIYWNGGITGYADSLKGRFTISRDNAKNSLYLQMNSLRAEDTALYHCARDRGSGYYIFDYWGQGTLVTVSS", "VL": "not shown"}, "B2": {"name": "P2-1G9 (antibody, V domains shown)", "VH": "EVQLVESGGGLVQPGGSLRLSCAASGFTFSTYWMSWVRQAPGKGLEWVANIKQDGSDKYYVDSVKGRFTISRDNAKNSLYLQMNSLRVEDTAVYYCARDLGILWFGELPNFDPWGQGTLVTVSS", "VL": "DIQMTQSPSSLSASVGDRVTITCRASQGISNSLAWYQQKPGKAPKLLLYAASTLESGVPSRFSGSGSGTDYTLTISSLQPEDFATYYCQQYYSPPPRTFGQGTKVEIK"}, "B3": {"name": "P2S-2E8 (antibody, V domains shown)", "VH": "B2 VH with T31S, D57E, V88A", "VL": "B2 VL with T53R, P94T"}, "B4": {"name": "P5S-1B11 (antibody, V domains shown)", "VH": "QVQLVQSGAEVKKPGASVKLSCRASGYTFTSYFMHWVRQAPGQGLEWMGVINPGGGGTSYAQKFQGRVTMTRDTSTSTVYMELSSLRSEDTAVYYCARYYDSIDNFDYWGQGTLVTVSS", "VL": "DIQMTQSPSSLSASVGDRVTITCRASQGIRNDLGWYQQKPGKAPKCLIYAASSLQSGVPSRFSGSRSGTEFTLTISSLQPEDFATYYCLQHNTYPQLTFGGGTKVEIK"}, "B5": {"name": "P195-1B8 (antibody, V domains shown)", "VH": "QVTLRESGPALVKPTQTLTLTCTFSGFSLSTSGMCVSWIRQPPGKALEWLALIDWDDDKYYSTSLKTRLTISKDTSKNQVVLTMTNMDPVDTATYYCARSWVGGGVDVWGQGTTVTVSS", "VL": "not shown"}, "B6": {"name": "P5-2B9 (antibody, V domains shown)", "VH": "EVQLVQSGAEVKKPGESLKISCKGSGHSFTSFWIGWVRQMPGKGLEWMGIIYPGDSETRYSPSFQGQVTISVDKSIFTAYLQWSSLKASDSAMYYCARISGKGVGWFDPWGQGTLVTVSS", "VL": "SYVLTQPPSVSVAPGQTARITCGGNNIGSKSVHWYQQKPGQAPVLVIYYDSDRPSGIPERFSGSNSGNTATLTISRVEAGDEADYYCQVWHSSSDHVVFGGGTKLTVL"}, "B7": {"name": "P10S-1G4 (antibody, V domains shown)", "VH": "QVQLQESGPGLVKPSQTLSLTCTVSGDSISSGDYYWIWIRQHPGKGLEWIGYIYYSGSTYYNPSLKSRVTISVDTSKNQFSLKLSSVTAADTAVYYCARVEYCSGGSCRRHNWFDPWGQGTLVTVSS", "VL": "QSVLTQPPSVSGAPGQRVTISCTGSSSNIGAGYDVHWYQQLPGTAPKLLIYGNSNRPSGVPDRFSGSKSGTSASLAITGLQAEDEADYYCQSYDSSLSGVVFGGGTKLTVL"}, "B8": {"name": "P195-2B9 (antibody, V domains shown)", "VH": "QVQLQESGPGLVKPSETLSLTCTVSGGSSSSHFWSWIRQPPGKGLEWIGYIYYGGNTNYNPSLKSRVTISVDTSKSQFSLKLSSVTAADTAVYYCARHHYYYDSSDFRLKAGYYFDYWGQGTLVAVSS", "VL": "B7 VL with Y51F, G52D, S54N, N55D, G70D, S98I, G99S, V100W, V110L"}, "B9": {"name": "P186-2A8 (antibody, V domains shown)", "VH": "EVQLVESGGGLVQPGRSLRLSCAASGFTFDDYAMHWVRQAPGKGLEWVSGISWNSGSISYADSVKGRFTISRDNAKNSLYLQMNSLRAEDTALYYCAKALVGGHKYYYGMDVWGQGTTVTVSS", "VL": "not shown"}},
  "note": "Substitutions are numbered along the chain they refer to. Numbers in names are those of the source.",
  "data": [
    {"molecular_target": "recombinant wild-type SARS-CoV-2 S trimer (ELISA antigen) (SARS-CoV-2 wild-type, UniProt P0DTC2)", "values": [
      {"binder": "B1", "binding result": "binds"},
      {"binder": "B2", "binding result": "binds"},
      {"binder": "B3", "binding result": "binds"},
      {"binder": "B4", "binding result": "binds"},
      {"binder": "B5", "binding result": "binds"},
      {"binder": "B6", "binding result": "binds"},
      {"binder": "B7", "binding result": "binds"},
      {"binder": "B8", "binding result": "binds"},
      {"binder": "B9", "binding result": "binds"}
    ]},
    {"molecular_target": "recombinant RBD protein of wild-type SARS-CoV-2 (ELISA antigen) (SARS-CoV-2 wild-type, UniProt P0DTC2)", "values": [
      {"binder": "B1", "binding result": "binds"},
      {"binder": "B2", "binding result": "binds"},
      {"binder": "B3", "binding result": "binds"},
      {"binder": "B4", "binding result": "binds"},
      {"binder": "B5", "binding result": "binds"},
      {"binder": "B6", "binding result": "binds"},
      {"binder": "B7", "binding result": "binds"},
      {"binder": "B8", "binding result": "binds"},
      {"binder": "B9", "binding result": "binds"}
    ]}
  ]
}
